These results are taken from patent publication US20180243435A1 (AbbVie / Abbott, published 2018).

Test [1] has as its target T1, DLL3 on DLL3-expressing HEK293T cells (human, UniProt Q9NYJ7 27-618).
T1 construct: Cells were formalin fixed and paraffin embedded for IHC; also called DLL3-overexpressing HEK293T cell pellets; DLL3-expressing HEK293T FFPE sections
T1 sequence: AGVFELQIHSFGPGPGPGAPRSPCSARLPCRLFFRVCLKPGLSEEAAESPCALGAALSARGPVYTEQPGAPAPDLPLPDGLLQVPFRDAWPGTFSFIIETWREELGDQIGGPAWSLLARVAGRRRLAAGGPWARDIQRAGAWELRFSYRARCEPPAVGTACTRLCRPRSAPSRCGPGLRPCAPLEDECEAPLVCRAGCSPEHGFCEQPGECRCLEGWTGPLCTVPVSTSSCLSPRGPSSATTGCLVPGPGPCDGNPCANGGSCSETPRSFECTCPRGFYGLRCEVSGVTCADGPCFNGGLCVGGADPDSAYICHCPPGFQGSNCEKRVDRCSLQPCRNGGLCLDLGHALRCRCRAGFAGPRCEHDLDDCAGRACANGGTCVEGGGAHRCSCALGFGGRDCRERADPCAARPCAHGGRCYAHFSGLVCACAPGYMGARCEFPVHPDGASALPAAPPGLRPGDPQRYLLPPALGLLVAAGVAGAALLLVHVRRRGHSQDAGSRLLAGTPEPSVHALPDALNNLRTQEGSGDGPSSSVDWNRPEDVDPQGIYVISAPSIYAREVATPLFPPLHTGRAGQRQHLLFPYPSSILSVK
Nature of the test: immunohistochemistry on HEK293T parental vs DLL3-expressing cell pellets. The protocol:
(§1) In order to identify an IHC-compatible anti-DLL3 antibody, IHC was performed on HEK293T parental cell pellets or DLL3-expressing HEK293T cell pellets using numerous anti-DLL3 antibodies of the invention. Several murine anti-DLL3 antibodies (including SC16.65) were able to specifically detect DLL3-overexpressing HEK293T cell pellets more effectively than other anti-DLL3 antibodies of the invention that were tested (data not shown). The ability of these antibodies to specifically detect DLL3 was confirmed by a competition experiment in which the relevant anti-DLL3 antibody was mixed with a 5× molar ratio excess of hDLL3-His protein and then incubated with DLL3-expressing HEK293T formalin fixed and paraffin embedded (FFPE) sections.

A further test has as its target T2, human DLL3-His protein (human, UniProt Q9NYJ7 27-492).
T2 construct: Purified from supernatants of CHO-S cells; also called hDLL3-His; recombinant DLL3-His; not shown: His tag
T2 sequence: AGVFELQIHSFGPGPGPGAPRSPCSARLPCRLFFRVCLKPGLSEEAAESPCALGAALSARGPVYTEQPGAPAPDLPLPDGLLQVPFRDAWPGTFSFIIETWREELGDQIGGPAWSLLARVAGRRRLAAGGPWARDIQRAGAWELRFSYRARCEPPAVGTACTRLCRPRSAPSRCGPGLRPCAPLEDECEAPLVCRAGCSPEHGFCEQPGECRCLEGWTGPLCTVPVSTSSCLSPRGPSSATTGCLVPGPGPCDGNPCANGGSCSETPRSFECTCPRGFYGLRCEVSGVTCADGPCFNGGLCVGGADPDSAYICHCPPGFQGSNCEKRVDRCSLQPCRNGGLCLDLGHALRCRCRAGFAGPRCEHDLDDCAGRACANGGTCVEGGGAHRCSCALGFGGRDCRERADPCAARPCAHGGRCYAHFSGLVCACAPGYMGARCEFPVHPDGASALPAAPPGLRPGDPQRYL
Nature of the test: IHC competition: antibody mixed with a 5x molar ratio excess of hDLL3-His before staining FFPE sections. How it is done:
as §1

Test [2] deals with T3, DLL3 extracellular domain (amino acids 27-466) displayed on yeast (human, UniProt Q9NYJ7 27-466).
T3 construct: also called DLL3 ECD; wild type DLL3 ECD
T3 sequence: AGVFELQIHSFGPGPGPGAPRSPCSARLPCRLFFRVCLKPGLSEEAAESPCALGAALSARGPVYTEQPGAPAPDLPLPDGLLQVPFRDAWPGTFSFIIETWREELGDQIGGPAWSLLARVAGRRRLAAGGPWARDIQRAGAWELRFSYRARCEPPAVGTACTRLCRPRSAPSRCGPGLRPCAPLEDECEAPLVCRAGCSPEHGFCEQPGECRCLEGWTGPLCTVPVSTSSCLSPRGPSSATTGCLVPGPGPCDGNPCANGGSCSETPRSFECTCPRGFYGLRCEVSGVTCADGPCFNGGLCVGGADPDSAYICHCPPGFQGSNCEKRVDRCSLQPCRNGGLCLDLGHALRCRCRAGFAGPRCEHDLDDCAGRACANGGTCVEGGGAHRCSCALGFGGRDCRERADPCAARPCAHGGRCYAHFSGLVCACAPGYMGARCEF
Nature of the test: fine epitope mapping (phage display peptide library or yeast display of DLL3 ECD mutants).

Changes are numbered by the printed parent chain.

B1: SC16.65 (antibody, V domains shown)
VH: QVTLKESGPGILQPSQTLSLTCSFSGFSLSTSGMGVGWIRQPSGKGLEWLALIWWDDVKRYNPALKSRLTISKDASSSQVFLKIASVDTADTATYYCARIASYDYDVVYAMDYWGQGTSVSVSS
VL: QIVLTQSPALMSASPGEKVTMTCSVTSSVSYMYWYQQKPRSSPKPWIYLTSNLASGVPARFSGSGSGTSYSLTISSVEAEDAATYYCQQWRNNPFTFGSGTKVEIK
notes: murine hybridoma mAb
Take B1: the binding result (in test [1]; with human DLL3-His protein) was “binds” each time.

B2: SC16.23 (antibody, V domains shown)
VH: QVTLKESGPGILQPSQTLSLTCSFSGFSLSTSNTGIGWIRQPSGTGLEWLAHIWWNDDKYYNPSLKSRLTISKETSNNQVFLKITNVDTADTASYFCVQIGRDYSNYAWYFDVWGAGTTVTVSS
VL: QIVLTQSPAIMSASPGEKVTLTCSASSSVSSRYLYWYQQKPGSSPKLWIYSTSNLASGVPARFSGSGSGTSYSLIISSMEAEDAASYFCHQWSNYPLTFGAGTKLELK
notes: murine hybridoma mAb
Consider B2, for which the binding result in test [2] is “binds”.

B3: SC16.34 (antibody, V domains shown)
VH: QIQLVQSGPELKRPGETVKISCKASGYTFTNYGMNWVKQAPGKGLKWMGWINTYTGDPTYADDFKGRFAFSLETSASTAYLQINNLKNEDTATYFCARIGGNSPSDYWGQGTSLTVSS
VL: SIVMTQTPKFLLVSAGDRVTITCKASQSVSNDVAWYQQKPGQSPKLLIYYASNRYSGVPDRFTGSGYGTDFTFTISTVQAEDLAVYFCQQDYSSPWTFGGGTKLEIK
notes: murine hybridoma mAb
Consider B3, for which the binding result in test [2] was “binds”.

B4: SC16.56 (antibody, V domains shown)
VH: B3 VH with R13K, G49A, D57E, Y80S, N84I, G101D, N102S, S113T
VL: B3 VL with A34V, S56T, T63A, T72S, S93T, K107R
notes: murine hybridoma mAb
B4: in test [2], the binding result was “binds”.
